# Source: patent publication US20240400693A1 (Chugai, published 2024)
# Where a chain is given by its changes, count along the chain named.
# B1: DQN0344H1013/L0620//DQN0385H1521/L0605-F6.v2 (bispecific antibody)
# heavy 1: QVQLVESGGGVVQPGRSLRLSCAASGFTFSSAYWMVWVRQAPGQGLEWMGAVYGGSDTTYYAKWTEGRFTISRDTSKNTLYLQMNSLRAEDTAVYYCAREPLNYYYYGELNVWGQGTLVTVSSASTKGPSVFPLAPSSKSTSGGTAALGCLVKDYFPEPVTVSWNSGALTSGVHTFPAVLKSSGLYSLSSVVTVPSSSLGTQTYICNVNHKPSNTKVDKRVEPKSCDKTHTCPPCPAPELRRGPSVFLFPPKPKDTLMISRTPEVTCVVVDVSHEDPEVKFNWYVDGVEVHNAKTKPREEQYNSTYRVVSVLTVLHQDWLNGKEYKCKVSNKALPAPIEKTISKAKGQPREPQVYTLPPSREEMTKNQVSLTCLVKGFYPSDIAVEWESNGQPENNYKTTPPVLDSDGSFFLYSKLTVDKSRWQEGNVFSCSVLHEALHAHYTREELSLSP
# light 1: DIQMTQSPSSLSASVGDRVTITCQATENIYSGLAWYQQKPGKAPKLLIYYVSTLAYGIPARFSGSGSGTDFTLTISSLEPEDFAVYYCQTYEDVSAVTFGQGTKVEIKRTVAAPSVFIFPPSDEQLKSGTAEVVCLLNNFYPREAKVQWKVDNALQSGNSEESVTEQDSKDSTYSLSSTLTLSKADYEKHKVYACEVTHQGLSSPVTKSFNRGEC
# heavy 2: QVQLVESGGGVVQPGRSLRLSCAASGFTFESWYFMSWVRQAPGKGLEWVASIDTGSGSIDYAEWVEGRFTISRDNSKNTLYLQMNSLRAEDTAVYYCARDIGIDYNFWGPGTLVTVSSASTKGPSVFPLAPSSKSTSGGTAALGCLVEDYFPEPVTVSWNSGALTSGVHTFPAVLESSGLYSLSSVVTVPSSSLGTKTYICNVNHKPSNTKVDKRVEPKSCDKTHTCPPCPAPELRRGPSVFLFPPKPKDTLMISRTPEVTCVVVDVSHEDPEVKFNWYVDGVEVHNAKTKPREEQYNSTYRVVSVLTVLHQDWLNGKEYKCKVSNKALPAPIEKTISKAKGQPREPQVYTLPPSRKEMTKNQVSLTCLVKGFYPSDIAVEWESNGQPENNYKTTPPVLDSDGSFFLYSKLTVDKSRWQQGNVFSCSVLHEALHAHYTRKELSLSP
# light 2: DIQMTQSPSSLSASVGDRVTITCQTTQSISSYLNWYQQKPGQPPKLLIYYASTKAEGIPARFSGSGSGTDFTLTISSLEPEDFAVYYCHYGISKVSFGQGTKVEIKRTVAAPSVFIFPPSDEQLKSGTAKVVCLLNNFYPREAKVQWKVDNALQSGNSKESVTEQDSKDSTYSLSSTLTLSKADYEKHKVYACEVTHQGLSSPVTKSFNRGEC
# B2: DQN0344H1013/L0620//DQN0385H1270/L0681-F6.v2 (bispecific antibody)
# heavy 1: B1 heavy 1
# light 1: B1 light 1
# heavy 2: B1 heavy 2 with E30S, S31E
# light 2: B1 light 2 with S67L
# Experiments:
# Assay in all cases: cell-based or functional assay
# [1] = target: HLA-DQ2.5 on IHW09023 cells loaded with 33mer gliadin peptide (human; wheat)
# [2] = target: HLA-DQ2.5 on IHW09023 cells loaded with omega1/2 gliadin peptide (human; wheat)
# [3] = target: HLA-DQ2.5 on IHW09023 cells loaded with BC hordein peptide (human; barley)
# [4] = target: HLA-DQ2.5 on IHW09023 cells loaded with gamma 1 gliadin peptide (human; wheat)
# [5] = target: HLA-DQ2.5 on IHW09023 cells loaded with gamma 2 gliadin peptide (human; wheat)
# [6] = target: HLA-DQ2.5 on IHW09023 cells loaded with gamma 3 gliadin peptide (human; wheat)
# [7] = target: HLA-DQ2.5 on IHW09023 cells loaded with gamma 4a gliadin peptide (human; wheat)
# [8] = target: HLA-DQ2.5 on IHW09023 cells loaded with gamma 4d gliadin peptide (human; wheat)
# [9] = target: HLA-DQ2.2 on HBBB2.2 cells loaded with 33mer gliadin peptide (human; wheat)
binder,measurement,setting,value
B1,"IC50 (ng/mL), α1a gliadin TCR, 250 nM 33mer gliadin",[1],0.6 ng/mL
same,"IC50 (ng/mL), α1b gliadin TCR, 250 nM 33mer gliadin",[1],1.81 ng/mL
same,"IC50 (ng/mL), α2 gliadin TCR, 250 nM 33mer gliadin",[1],0.33 ng/mL
same,"IC50 (ng/mL), ω1 gliadin TCR, 25 µM ω1/2 gliadin",[2],1.96 ng/mL
same,"IC50 (ng/mL), ω2 gliadin TCR, 250 nM ω1/2 gliadin",[2],0.2 ng/mL
same,"IC50 (ng/mL), BC hordein TCR, 250 nM BC hordein",[3],11.4 ng/mL
same,"IC50 (ng/mL), γ1 gliadin TCR, 250 nM γ1 gliadin",[4],1.9 ng/mL
same,"IC50 (ng/mL), γ2 gliadin TCR, 250 nM γ2 gliadin",[5],785 ng/mL
same,"IC50 (ng/mL), γ3 gliadin TCR, 100 µM γ3 gliadin",[6],1.21 ng/mL
same,"IC50 (ng/mL), γ4a gliadin TCR, 25 µM γ4a gliadin",[7],1250 ng/mL
same,"IC50 (ng/mL), γ4d gliadin TCR, 100 µM γ4d gliadin",[8],9.23 ng/mL
same,"IC50 (ng/ml)_HLA-DQ2.2, α1a gliadin TCR, 25 µM 33mer gliadin",[9],1.16 ng/mL
same,"IC50 (ng/ml)_HLA-DQ2.2, α2 gliadin TCR, 1 µM 33mer gliadin",[9],6.51 ng/mL
B2,"IC50 (ng/mL), α1a gliadin TCR, 250 nM 33mer gliadin",[1],0.63 ng/mL
same,"IC50 (ng/mL), α1b gliadin TCR, 250 nM 33mer gliadin",[1],1.42 ng/mL
same,"IC50 (ng/mL), α2 gliadin TCR, 250 nM 33mer gliadin",[1],0.53 ng/mL
same,"IC50 (ng/mL), ω1 gliadin TCR, 25 µM ω1/2 gliadin",[2],3.19 ng/mL
same,"IC50 (ng/mL), ω2 gliadin TCR, 250 nM ω1/2 gliadin",[2],0.49 ng/mL
same,"IC50 (ng/mL), BC hordein TCR, 250 nM BC hordein",[3],25.2 ng/mL
same,"IC50 (ng/mL), γ1 gliadin TCR, 250 nM γ1 gliadin",[4],5.85 ng/mL
same,"IC50 (ng/mL), γ2 gliadin TCR, 250 nM γ2 gliadin",[5],280 ng/mL
same,"IC50 (ng/mL), γ3 gliadin TCR, 100 µM γ3 gliadin",[6],4.84 ng/mL
same,"IC50 (ng/mL), γ4a gliadin TCR, 25 µM γ4a gliadin",[7],1980 ng/mL
same,"IC50 (ng/mL), γ4d gliadin TCR, 100 µM γ4d gliadin",[8],27.8 ng/mL
same,"IC50 (ng/ml)_HLA-DQ2.2, α1a gliadin TCR, 25 µM 33mer gliadin",[9],1.62 ng/mL
same,"IC50 (ng/ml)_HLA-DQ2.2, α2 gliadin TCR, 1 µM 33mer gliadin",[9],4.6 ng/mL
